Test system: Escherichia coli TOP10
Assay: shrunken log2 fold change of peptide-encoding DNA abundance (4.5 h post-induction vs induction); higher = less antimicrobial activity (less host growth inhibition)
Details: time post-induction: 4.5 h; library: site-saturation at positions 5, 18, 19, 20
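Further: peptides expressed intracellularly from a pBAD plasmid library in pooled LB shake-flask culture, induced with 0.3% L-arabinose, DNA abundance read by NGS, three biological replicates, DESeq2 with apeglm shrinkage.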

## RRIRTRPPRLPRPRPRPRHGPRP
  shrunken log2 fold change: 0.745

## RRIRVRPPRLPRPRPRPHRGPRP
  shrunken log2 fold change: -0.0736

## RRIRERPPRLPRPRPRPYFMPRP
  shrunken log2 fold change: -0.784

## RRIRDRPPRLPRPRPRPVLQPRP
  shrunken log2 fold change: 0.0891

## RRIRRRPPRLPRPRPRPWDSPRP
  shrunken log2 fold change: 0.0548

## RRIRQRPPRLPRPRPRPDEKPRP
  shrunken log2 fold change: 0.02

## RRIRARPPRLPRPRPRPSTDPRP
  shrunken log2 fold change: 1.08

## RRIRCRPPRLPRPRPRPHCLPRP
  shrunken log2 fold change: -1.4

## RRIRIRPPRLPRPRPRPPRPPRP
  shrunken log2 fold change: 0.822

## RRIRNRPPRLPRPRPRPTLAPRP
  shrunken log2 fold change: 0.556

## RRIRLRPPRLPRPRPRPVINPRP
  shrunken log2 fold change: -0.686

## RRIRIRPPRLPRPRPRPRYLPRP
  shrunken log2 fold change: 0.0743

## RRIRKRPPRLPRPRPRPGDWPRP
  shrunken log2 fold change: 0.485

## RRIRIRPPRLPRPRPRPMSGPRP
  shrunken log2 fold change: 0.174

## RRIRLRPPRLPRPRPRPIWYPRP
  shrunken log2 fold change: -0.645

## RRIRMRPPRLPRPRPRPGPMPRP
  shrunken log2 fold change: 1.05

## RRIRNRPPRLPRPRPRPIGLPRP
  shrunken log2 fold change: -0.123

## RRIRLRPPRLPRPRPRPHTSPRP
  shrunken log2 fold change: -0.112

## RRIRSRPPRLPRPRPRPLWVPRP
  shrunken log2 fold change: 0.0823

## RRIRMRPPRLPRPRPRPPALPRP
  shrunken log2 fold change: 1.13

## RRIRGRPPRLPRPRPRPMMMPRP
  shrunken log2 fold change: 0.574

## RRIRLRPPRLPRPRPRPKCAPRP
  shrunken log2 fold change: 0.0163

## RRIRCRPPRLPRPRPRPMLSPRP
  shrunken log2 fold change: -0.202

## RRIRTRPPRLPRPRPRPMAQPRP
  shrunken log2 fold change: 0.074

## RRIRWRPPRLPRPRPRPWERPRP
  shrunken log2 fold change: 0.142

## RRIRERPPRLPRPRPRPRDRPRP
  shrunken log2 fold change: 0.0224

## RRIRWRPPRLPRPRPRPMCFPRP
  shrunken log2 fold change: 0.0876

## RRIRPRPPRLPRPRPRPNYKPRP
  shrunken log2 fold change: -0.537

## RRIRDRPPRLPRPRPRPFAVPRP
  shrunken log2 fold change: -0.0136

## RRIRWRPPRLPRPRPRPYHNPRP
  shrunken log2 fold change: -0.296

## RRIRYRPPRLPRPRPRPRCQPRP
  shrunken log2 fold change: -0.259

## RRIRGRPPRLPRPRPRPTFKPRP
  shrunken log2 fold change: 0.538

## RRIRVRPPRLPRPRPRPNKMPRP
  shrunken log2 fold change: -0.411

## RRIRGRPPRLPRPRPRPCFRPRP
  shrunken log2 fold change: 0.0644

## RRIRQRPPRLPRPRPRPLATPRP
  shrunken log2 fold change: 0.0953

## RRIRARPPRLPRPRPRPFVEPRP
  shrunken log2 fold change: 0.108

## RRIRERPPRLPRPRPRPTEVPRP
  shrunken log2 fold change: -0.121

## RRIRCRPPRLPRPRPRPTVCPRP
  shrunken log2 fold change: -0.0924

## RRIRSRPPRLPRPRPRPEMWPRP
  shrunken log2 fold change: 0.67

## RRIRIRPPRLPRPRPRPIHKPRP
  shrunken log2 fold change: -0.782

## RRIRIRPPRLPRPRPRPMQPPRP
  shrunken log2 fold change: -0.0593

## RRIRDRPPRLPRPRPRPRKEPRP
  shrunken log2 fold change: -0.00977

## RRIRCRPPRLPRPRPRPGPPPRP
  shrunken log2 fold change: 0.942

## RRIRQRPPRLPRPRPRPSQLPRP
  shrunken log2 fold change: 0.0128

## RRIRPRPPRLPRPRPRPAMCPRP
  shrunken log2 fold change: -0.0389

## RRIRWRPPRLPRPRPRPTVMPRP
  shrunken log2 fold change: -0.374

## RRIRFRPPRLPRPRPRPRAVPRP
  shrunken log2 fold change: 0.475

## RRIRRRPPRLPRPRPRPDAAPRP
  shrunken log2 fold change: 1.44

## RRIRIRPPRLPRPRPRPVMMPRP
  shrunken log2 fold change: -0.31

## RRIRSRPPRLPRPRPRPNNFPRP
  shrunken log2 fold change: -0.667

## RRIRQRPPRLPRPRPRPLDLPRP
  shrunken log2 fold change: -0.276

## RRIRMRPPRLPRPRPRPEHTPRP
  shrunken log2 fold change: 2.63

## RRIRYRPPRLPRPRPRPGAEPRP
  shrunken log2 fold change: 0.227

## RRIRQRPPRLPRPRPRPQHWPRP
  shrunken log2 fold change: 0.0488

## RRIRSRPPRLPRPRPRPMFWPRP
  shrunken log2 fold change: 0.332

## RRIRIRPPRLPRPRPRPTTWPRP
  shrunken log2 fold change: -0.165

## RRIRRRPPRLPRPRPRPCYKPRP
  shrunken log2 fold change: -0.202

## RRIRYRPPRLPRPRPRPQEWPRP
  shrunken log2 fold change: -0.000687

## RRIRLRPPRLPRPRPRPNNPPRP
  shrunken log2 fold change: -0.157

## RRIRVRPPRLPRPRPRPNFFPRP
  shrunken log2 fold change: 0.0488

## RRIRDRPPRLPRPRPRPHSKPRP
  shrunken log2 fold change: -0.456

## RRIRRRPPRLPRPRPRPKRAPRP
  shrunken log2 fold change: 0.52

## RRIRWRPPRLPRPRPRPGTPPRP
  shrunken log2 fold change: 0.356

## RRIRYRPPRLPRPRPRPAMRPRP
  shrunken log2 fold change: 0.372

## RRIRKRPPRLPRPRPRPPEAPRP
  shrunken log2 fold change: 0.948

## RRIRCRPPRLPRPRPRPSIAPRP
  shrunken log2 fold change: -0.3

## RRIRQRPPRLPRPRPRPPMWPRP
  shrunken log2 fold change: 0.336

## RRIRKRPPRLPRPRPRPHAAPRP
  shrunken log2 fold change: -0.0457

## RRIRYRPPRLPRPRPRPSGEPRP
  shrunken log2 fold change: -0.187

## RRIRNRPPRLPRPRPRPGCQPRP
  shrunken log2 fold change: -0.108

## RRIRVRPPRLPRPRPRPIETPRP
  shrunken log2 fold change: 0.0184

## RRIRIRPPRLPRPRPRPWFKPRP
  shrunken log2 fold change: -1.74

## RRIRVRPPRLPRPRPRPWPRPRP
  shrunken log2 fold change: 0.183

## RRIRSRPPRLPRPRPRPHWEPRP
  shrunken log2 fold change: -0.0851

## RRIRARPPRLPRPRPRPPLQPRP
  shrunken log2 fold change: 0.557

## RRIRRRPPRLPRPRPRPCDWPRP
  shrunken log2 fold change: 0.156

## RRIRNRPPRLPRPRPRPQDIPRP
  shrunken log2 fold change: -0.252

## RRIRFRPPRLPRPRPRPTLSPRP
  shrunken log2 fold change: 0.0323

## RRIRARPPRLPRPRPRPFMPPRP
  shrunken log2 fold change: -0.149

## RRIRKRPPRLPRPRPRPILQPRP
  shrunken log2 fold change: 0.0319

## RRIRTRPPRLPRPRPRPAALPRP
  shrunken log2 fold change: 0.0806

## RRIRMRPPRLPRPRPRPHPSPRP
  shrunken log2 fold change: -0.127

## RRIRGRPPRLPRPRPRPNILPRP
  shrunken log2 fold change: 0.199

## RRIRTRPPRLPRPRPRPQEWPRP
  shrunken log2 fold change: -0.0128

## RRIRGRPPRLPRPRPRPESAPRP
  shrunken log2 fold change: 1.67

## RRIRCRPPRLPRPRPRPISGPRP
  shrunken log2 fold change: 0.0437

## RRIRARPPRLPRPRPRPGYKPRP
  shrunken log2 fold change: -0.268

## RRIRRRPPRLPRPRPRPDLFPRP
  shrunken log2 fold change: 0.41

## RRIRSRPPRLPRPRPRPHNIPRP
  shrunken log2 fold change: -0.211

## RRIRQRPPRLPRPRPRPFVPPRP
  shrunken log2 fold change: 0.0357

## RRIRWRPPRLPRPRPRPRPPPRP
  shrunken log2 fold change: 1.11

From the supplement of paper PMC9112550, “Optimization of the antimicrobial peptide Bac7 by deep mutational scanning” (BMC Biology, 2022)
